As usually defined, the Km is the substrate concentration at which the rate is half of its maximum. The term kcat denotes the number of substrate molecules converted per active site and unit of time at saturation. One may read the kcat/Km as the turnover number divided by the Michaelis constant.

Data set [1] deals with KPC-2 (Klebsiella pneumoniae, UniProt Q9F663). In words: steady-state hydrolysis, diode array spectrophotometer. As to conditions: 10 mM PBS, pH 7.4, 25°C; 10 nM enzyme.
The test system of data set [2] is C[C@@H](O)[C@H]1C(=O)N2C(C(=O)O)=C(SCCN=CN)C[C@H]12. The experiment in a line: purified protein. The following applies: 10 mM PBS, pH 7.4, 25°C, 10 nM enzyme.
The subject of data set [3] is CO/N=C(\C(=O)N[C@@H]1C(=O)N2C(C(=O)O)=C(COC(C)=O)CS[C@H]12)c1csc(N)n1. In words: purified protein. The following applies: 10 mM PBS, pH 7.4, 25°C, 10 nM enzyme.
The subject of data set [4] is Cc1nnc(SCC2=C(C(=O)O)N3C(=O)[C@@H](NC(=O)Cn4cnnn4)[C@H]3SC2)s1. The experiment in a line: purified protein. As to conditions: 10 mM PBS, pH 7.4, 25°C, 10 nM enzyme.
The test system of data set [5] is CC(C)(O/N=C(\C(=O)N[C@@H]1C(=O)N2C(C(=O)[O-])=C(C[n+]3ccccc3)CS[C@H]12)c1csc(N)n1)C(=O)O. The experiment in a line: purified protein. As to conditions: 10 mM PBS, pH 7.4, 25°C, 10 nM enzyme.
Data set [6] has as its system C[C@@H](O)[C@H]1C(=O)N2C(C(=O)O)=C(S[C@@H]3CN[C@H](C(=O)N(C)C)C3)[C@H](C)[C@H]12. The experiment in a line: purified protein. The following applies: 10 mM PBS, pH 7.4, 25°C, 10 nM enzyme.

Consider `O=C(Cc1cccs1)N[C@@H]1C(=O)N2C(C(=O)O)=C(/C=C/c3ccc([N+](=O)[O-])cc3[N+](=O)[O-])CS[C@H]12` [nitrocefin], for which, in data set [1], the Km was 6.5 ± 2.4 µM.

In the case of KPC-2 (Klebsiella pneumoniae), the Km in data set [2] stood at 21 ± 2 µM; in data set [3], 124 ± 6 µM; in data set [4], 16 ± 1 µM; in data set [5] it was 217 ± 6 µM; in data set [6] it was 16.2 ± 3.1 µM. Besides, the kcat in data set [2] amounted to 20 ± 1 s⁻¹; in data set [3], 52 ± 6 s⁻¹; in data set [4] it was 44 ± 2 s⁻¹; in data set [5], 0.59 ± 0.83 s⁻¹; in data set [6], 4.1 ± 0.99 s⁻¹. Besides, the kcat/Km worked out at 950000 ± 650000 M⁻¹ s⁻¹ in data set [2], 2.8e+06 ± 1e+06 M⁻¹ s⁻¹ in data set [4], 2700 ± 560 M⁻¹ s⁻¹ in data set [5] and 250000 ± 61000 M⁻¹ s⁻¹ in data set [6].

(Values after paper PMC4216079, “Phenotypic and Enzymatic Comparative Analysis of the KPC Variants, KPC-2 and Its Recently Discovered Variant KPC-15” (PLoS ONE, 2014).)
